Publication PMC10071783 (Journal of Nuclear Medicine, 2023)
Read-outs that look alike come from different tables or passages of the source.

Legend:
[1] = 8 d; cited from earlier work
Method: DOTA and its derivatives are used to chelate ^225Ac and many of the previously mentioned radionuclides. However, to chelate ^225Ac with DOTA to yield high-specific-activity radioconjugates, temperatures above 70°C are typically required. Even if these temperatures are used, the resulting complex’s thermodynamic stability ([19]) and labeling kinetics are suboptimal ([20]).

[2] = Dose-finding study in mice bearing H69 tumor xenografts; type: in vivo; settings: D-lysine pretreatment
Text: The promising biodistribution profile of ^225Ac-MACROPATATE led us to investigate its therapeutic efficacy. […] All mice in the 148-kBq treatment group (10/10) and 1 of 3 mice in the 92.3-kBq group were euthanized within 10 d of treatment because of substantial weight loss (>20%).

[3] = Biodistribution in mice bearing subcutaneous H69 tumor xenografts; type: in vivo; settings: female, NCI Athymic NCr-nu/nu, mouse, 37 kBq, total radioactivity; for tissue uptake at 2 h: 2 h after injection; for tissue uptake at 2 h / tissue uptake at 24 h: H69 xenograft mice, n = 3, read-out: tumor uptake, percentage injected activity per gram of tissue; for tissue uptake at 4 h: 4 h after injection, read-out: kidney percentage injected activity per gram of tissue; for tissue uptake at 24 h: 24 h after injection
Method: All procedures and animal studies followed a protocol approved by the National Institutes of Health Institutional Animal Care and Use Committee (protocol ROB104). Female athymic homozygous nude mice (NCI Athymic NCr-nu/nu strain 553; Charles River Laboratories), 8–10 wk old, were subcutaneously engrafted with 8 × 10^6 H69 cells in 200 μL of ice-cold phosphate-buffered saline. Treatment of tumors with radiotracers for biodistribution or therapy studies was performed once palpable tumors developed, approximately 1 mo after inoculation. […] Full experimental details for the biodistribution experiments are reported in the supplemental information.
(C) Corresponding tumor-to-tissue ratios for selected organs with lysine pretreatment. Full 12-organ biodistribution data are reported in Supplemental Figures 8–11. Error bars represent SD. ***P < 0.005. […]. %IA/g = percentage injected activity per gram of tissue.

H69 lung NET xenografts = assay: Head-to-head therapy study in mice engrafted with H69 cells; type: in vivo; settings: 46.3 kBq
Method: Animals engrafted with H69 cells were treated with either of the 2 radioconjugates or saline (n = 8–10, each). Local control and survival were the primary outcomes. All groups were tracked for humane endpoints including, but not limited to, tumors larger than 2,000 mm^3 and weight loss greater than 20%.
FIGURE 5. […] (A) Tumor volume measurements over time. Solid lines represent average volume, and dashed lines represent 95% CI. Plots for each dataset are discontinued after first mouse death due to excessive tumor volume. Full tumor volume measurements for study duration for each mouse are reported in Supplemental Figures 15–17. (B) Maximal response to treatment (tumor volume growth percentage) of individual mice. Nonresponding mice are represented as full tumor growth (2,000% increase). (C) Mouse survival over time. Endpoint was defined as tumor volume > 2,000 mm^3 or weight loss over 20% of starting weight. (D) Average mouse body weights over time for each treatment group. Error bars represent SD. ***P < 0.005. *P < 0.05.

[4] = Serum stability in human serum at 37°C by ITLC; type: in vitro ADME; settings: for remaining at 240 h, 370 kBq/mL: human serum (EMD Millipore), pH 7.4, 370 kBq in 1 mL, up to 10 d, read-out ITLC, read-out: intact conjugate remaining in human serum; for stability in human serum: ITLC
Method: Radiochelate was diluted to 370 kBq in 1 mL of human serum and placed on an Eppendorf ThermoMixer set to 37°C. At fixed intervals, aliquots were removed from the reactions and analyzed by ITLC as described in the supplemental information.

[5] = design: method as in PMID 33772332; settings: 148 kBq; cited from earlier work
[6] = design: method as in PMID 33772332; settings: cited from earlier work

O=C([O-])c1cccc(CN2CCOCCOCCN(Cc3cccc(C(=O)[O-])n3)CCOCCOCC2)n1.[225Ac+3] [^225Ac-MACROPA]
stability in C57BL6 mice compared with 225Ac-DOTA [1]: comparable stability
stability in human serum compared with 225Ac-DOTA [1]: comparable stability

C[C@@H](O)[C@H](NC(=O)[C@@H]1CSSC[C@H](NC(=O)[C@@H](Cc2ccccc2)NC(=S)Nc2cc(CN3CCOCCOCCN(Cc4cccc(C(=O)O)n4)CCOCCOCC3)nc(C(=O)O)c2)C(=O)N[C@@H](Cc2ccc(O)cc2)C(=O)N[C@H](Cc2c[nH]c3ccccc23)C(=O)N[C@@H](CCCCN)C(=O)N[C@@H]([C@@H](C)O)C(=O)N1)C(=O)O [^225Ac-MACROPATATE, metal not drawn]
mice euthanized within 10 d of treatment because of substantial weight loss (>20%) ([2]; 92.3-kBq group): 1 of 3
mice euthanized within 10 d of treatment because of substantial weight loss (>20%) ([2]; 148-kBq treatment group): 10/10
tissue uptake at 2 h ([3]; in vivo): 9 %ID/g
tissue uptake at 4 h ([3]; in vivo, after D-lysine administration (35 mg/mouse)): 5.2 %ID/g
tissue uptake at 4 h ([3]; in vivo, without D-lysine): 11.5 %ID/g
tissue uptake at 24 h ([3]; in vivo): 4 %ID/g
duration of initial reduction in tumor volume after treatment (H69 lung NET xenografts): approximately 3 wk
mice whose tumors subsequently relapsed (H69 lung NET xenografts): 7 of 8
median survival (H69 lung NET xenografts; H69 xenograft mice, n = 8-10, vehicle 26 d, log rank P = 0.0006): 55 days
remaining at 240 h, 370 kBq/mL [4]: 98%
stability in human serum [4]: stable to 10 d

C[C@@H](O)[C@H](NC(=O)[C@@H]1CSSC[C@H](NC(=O)[C@@H](Cc2ccccc2)NC(=O)CN2CCN(CC(=O)O)CCN(CC(=O)O)CCN(CC(=O)O)CC2)C(=O)N[C@@H](Cc2ccc(O)cc2)C(=O)N[C@H](Cc2c[nH]c3ccccc23)C(=O)N[C@@H](CCCCN)C(=O)N[C@@H]([C@@H](C)O)C(=O)N1)C(=O)O [^225Ac-DOTATATE, metal not drawn, reference compound]
tolerability in mice [5]: well tolerated
intact 225Ac-DOTATATE after 10 d [6]: 90%
tissue uptake at 4 h ([3]; kidney, after D-lysine administration (35 mg/mouse)): 3.1 %ID/g
tissue uptake at 4 h ([3]; kidney, without D-lysine): 6 %ID/g
tissue uptake at 2 h ([3]; tumor): 5 %ID/g
tissue uptake at 24 h ([3]; tumor): 2 %ID/g
remaining at 240 h, 370 kBq/mL [4]: 95%
stability in human serum [4]: stable to 10 d
